± gives the uncertainty stated by the source.
Experiment: protein stability index of a GFP-peptide fusion (yeast GPS) (PSI 1-4); higher = more stable; sorted into four equal gates, so the index is relative within each strain
Outline: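 Tiled 17-residue yeast protein peptides were fused downstream of GFP in a plasmid that also expresses Cherry, and the pooled library was carried in yeast. Mid-log cultures in leucine-free medium were sorted into four equal gates by GFP/Cherry fluorescence ratio, and plasmids from each gate were PCR-amplified and Illumina-sequenced, with reads assigned to strains by barcodes. The protein stability index for each peptide was each gate's read frequency times its gate number, summed.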

Sequence | protein stability index (doa10∆) | protein stability index (pdr5∆) | protein stability index (san1∆) | protein stability index (ubr1∆)
RREELQQRIREIGLLPE [SMC3] | 3.34 ± 0.12 | 3.06 ± 0.2 | 3.21 ± 0.075 | 3.45 ± 0.066
GNNTELTKTTVNISAVD [YCG1] | 2.98 ± 0.07 | 3.24 ± 0.071 | 3.02 ± 0.054 | 3.12 ± 0.054
HDFIKGLIMLNLQPASV [NUT1] | 1.83 ± 0.059 | 1.24 ± 0.071 | 1.22 ± 0.14 | 1.24 ± 0.065
EALQYDPQPFLKHVLQL [SNU114] | 2.17 ± 0.04 | 2.53 ± 0.047 | 2.35 ± 0.075 | 2.65 ± 0.038
YHGLYTNYEMSYWQKSY [LIN1] | 1.75 ± 0.046 | 2.08 ± 0.038 | 2.11 ± 0.055 | 2.17 ± 0.041
KVYAQLLESYKTLSLKS [RPN7] | 2.04 ± 0.062 | 2.56 ± 0.085 | 2 ± 0.11 | 1.32 ± 0.03
DTVNSALENDVATNIVN [YML103C/NUP188] | 2.87 ± 0.051 | 3.14 ± 0.064 | 3.09 ± 0.046 | 3.19 ± 0.055
ESDTGLAPSHLWDIMGD [RPT1] | 2.91 ± 0.16 | – | 3.06 ± 0.12 | –
SDGIVLAAERKVTSTLL [PRE9] | 2.39 ± 0.1 | 1.58 ± 0.065 | – | 1.85 ± 0.075
QLDLCKLYFQLFLNTGC [SRP68] | 2.01 ± 0.038 | 1.4 ± 0.042 | 1.45 ± 0.092 | 1.7 ± 0.037
ISSSAIPYSRNAPAWFK [RPS13] | 2.33 ± 0.09 | 2.9 ± 0.071 | 2.21 ± 0.086 | 2.37 ± 0.063
PVSLLNSQLVGKPHFSL [PCI8] | 2.1 ± 0.084 | 2.37 ± 0.074 | 1.88 ± 0.21 | 2.21 ± 0.052
EVTKSSHVENLEEKLYQ [YIL149C/MLP2] | 2.76 ± 0.073 | 2.97 ± 0.072 | 2.93 ± 0.052 | 2.98 ± 0.048
NGITLALIDAGISMFDY [SKI6] | 1.38 ± 0.068 | 1.51 ± 0.042 | 1.59 ± 0.14 | 1.56 ± 0.038
LARHLPAELDLRGSLLS [RPC82] | 3.04 ± 0.12 | 3.16 ± 0.11 | 3.01 ± 0.085 | 3.15 ± 0.072
QNGQQPPTTSNLIIFLY [YML103C/NUP188] | 2.83 ± 0.05 | 2.78 ± 0.04 | 2.94 ± 0.034 | 3.06 ± 0.035
DSLKKLLPQWDDDQIES [ARP9] | 3.32 ± 0.14 | 3.17 ± 0.087 | 2.83 ± 0.071 | 3.17 ± 0.081
RKANREEKLKANKEKKK [RPL24A] | 2.88 ± 0.074 | 1.98 ± 0.066 | 2.15 ± 0.087 | 2.31 ± 0.053
DHSWFLLIGCKLDQDDE [CSI1] | 1.54 ± 0.11 | 1.95 ± 0.096 | 3.03 ± 0.12 | 2.34 ± 0.064
RQLTSMEFSNLYKEFFN [NUT1] | 2.48 ± 0.079 | 2.59 ± 0.068 | 2.85 ± 0.089 | 2.25 ± 0.067
NTAAALVSLLDENDSKK [YAR002W/NUP60] | 3.13 ± 0.097 | 2.95 ± 0.12 | 3.01 ± 0.087 | 3.01 ± 0.099
ECSKDMKEDGLSFVDIV [SIR4] | 2.75 ± 0.17 | 3.39 ± 0.1 | 3.1 ± 0.088 | 3.03 ± 0.065
YEAGASHGNPVVDFLKR [FAS1] | 3.17 ± 0.09 | 3.13 ± 0.099 | 3.35 ± 0.07 | 3.25 ± 0.044
AELIPELYSFQQLVDSE [SNF12] | 1.79 ± 0.08 | 2.12 ± 0.067 | 2.67 ± 0.057 | 1.87 ± 0.047
DESDSENDIEIKGPEFK [YLR335W/NUP2] | 2.88 ± 0.11 | 2.92 ± 0.21 | 3.03 ± 0.13 | 2.96 ± 0.095
KIYKLENGERKLYDAKR [YMR129W/POM152] | 3.13 ± 0.06 | 3.17 ± 0.077 | 3.21 ± 0.065 | 3.29 ± 0.06
EESINEFKSIEIEMKNK [SMC4] | 3.32 ± 0.21 | 3.56 ± 0.17 | 3.31 ± 0.25 | 2.86 ± 0.097

Sequence | protein stability index (doa10∆) | protein stability index (pdr5∆) | protein stability index (san1∆) | protein stability index (ubr1∆)
GMNLLSNLSQNVVPYHR [SWI1] | 1.88 ± 0.079 | 2.88 ± 0.1 | 2.46 ± 0.098 | 2.43 ± 0.065
TITTILILGLNTSIAQF [YML103C/NUP188] | 1.83 ± 0.039 | 1.67 ± 0.045 | 2.32 ± 0.076 | 2.28 ± 0.04
GIDQYSFNVKENQPFHG [AAR2] | 2.65 ± 0.058 | 2.88 ± 0.058 | 2.82 ± 0.048 | 2.9 ± 0.051
ESIDVDMDAESNESQNG [SMC3] | 3.21 ± 0.094 | 2.91 ± 0.079 | 2.65 ± 0.066 | 3.27 ± 0.037
ATLKEIKSIIEQRKQKL [SMC3] | 2.89 ± 0.087 | 3.16 ± 0.08 | 3.16 ± 0.046 | 3.04 ± 0.052
EEKEESNLAATKSMVKI [RPN11] | 3.43 ± 0.12 | 3.41 ± 0.11 | 3.34 ± 0.059 | 3.35 ± 0.098
QSSFAGTWSAKEAVFKS [FAS2] | 2.98 ± 0.078 | 3.23 ± 0.071 | 3.18 ± 0.054 | 2.99 ± 0.058
AMICEAKGLIENIFEGE [YJR042W/NUP85] | 2.94 ± 0.13 | 2.93 ± 0.086 | 2.5 ± 0.1 | 2.81 ± 0.064
KPMAFSNTTTHVPEKKS [MTR3] | 1.46 ± 0.053 | 2.04 ± 0.052 | 2.32 ± 0.082 | 1.62 ± 0.034
LQLAPGAHLGRFVIWTE [RPL4A] | 3.62 ± 0.21 | 2.98 ± 0.22 | 3.18 ± 0.099 | 3.27 ± 0.08
EPAIEEENGDSIKEHST [MED1] | 3.32 ± 0.19 | – | 3.23 ± 0.14 | 3.56 ± 0.14
ALYIAMMTRRVVMAMYN [RET1] | 3.11 ± 0.28 | – | – | –
YQSRGIDAMKAVAEAYN [RPN6] | 2.87 ± 0.088 | 3.1 ± 0.083 | 2.81 ± 0.077 | 2.65 ± 0.045
PFIKSESKPFSSDALSK [SIR4] | 3.17 ± 0.07 | 3.15 ± 0.09 | 3.2 ± 0.046 | 3.13 ± 0.061
KPQEIKDILVKTGITKK [PRE9] | 3.39 ± 0.089 | 3.29 ± 0.086 | 2.56 ± 0.22 | 3.15 ± 0.14
ATDEESVRLQRFYQLGV [CSN12] | 3.13 ± 0.16 | 3.13 ± 0.15 | 2.92 ± 0.11 | 3.13 ± 0.099
DRFPLKLREPVARFLHF [ITC1] | 1.69 ± 0.076 | 1.7 ± 0.067 | 1.79 ± 0.12 | 1.91 ± 0.046
VNIHHLLNEYRPHQSRE [MED7] | 2.81 ± 0.084 | 2.4 ± 0.16 | 1.81 ± 0.2 | 2.25 ± 0.1
VKAFLSIFEDAIKELNY [NUT1] | 2.04 ± 0.091 | 1.73 ± 0.087 | 2.55 ± 0.19 | 2.62 ± 0.19
QAINLGQVVLTPLTFAL [RPL14A] | 1.53 ± 0.065 | 1.43 ± 0.049 | 1.25 ± 0.09 | 1.35 ± 0.067
SQLAQVAAFVNNYPNVE [BRR2] | 2.33 ± 0.064 | 2.63 ± 0.068 | 2.68 ± 0.067 | 2.76 ± 0.051
YDDEQNTSAQHVESDKI [IRR1] | 3.25 ± 0.094 | 3.04 ± 0.053 | 3.06 ± 0.065 | 3.27 ± 0.057
ISFLEPINLKFLQGESP [YMR129W/POM152] | 2.6 ± 0.073 | 2.94 ± 0.11 | – | 2.67 ± 0.15
HPPDFKRMLLSLSEFAR [SNF2] | 1.32 ± 0.038 | 1.33 ± 0.036 | 1.26 ± 0.064 | 1.27 ± 0.023
IGSQRGRRLSMLASQAN [DSN1] | 1.75 ± 0.057 | 2.47 ± 0.068 | 1.88 ± 0.096 | 2.18 ± 0.047
FPKTTVAALRFTAGARA [RPL18A] | 1.58 ± 0.15 | 1.47 ± 0.085 | – | 1.5 ± 0.12
